Entries after “also recorded” stand apart in the source; their conditions may differ.

One data set deals with RAW 264.7 cells. Description: Cell-permeability of FITC-labeled SOCS3 recombinant proteins (flow cytometry). It is filed as cell-based. Here is the method: To examine cell-permeability of SOCS3 recombinant protein, SOCS3 recombinant proteins were conjugated to 5/6-fluorescein isothiocyanate (FITC). RAW 264.7 (KCLB, Seoul, South Korea) (FIG. 20) or NIH3T3 cells (KCLB, Seoul, South Korea) (FIG. 21) were treated with 10 μM FITC-labeled SOCS3 recombinant proteins and cultivated for 1 hr at 37° C.
In this regard, RAW 264.7 cells were cultured in a DMEM medium containing 10% fetal bovine serum (FBS, Hyclone, USA) and […] of 1% penicillin/streptomycin (Hyclone, USA).
After cultivation, the cells were washed three times with ice-cold PBS (Phosphate-buffered saline, Hyclone, USA) and treated with proteinase K (10 μg/mL, SIGMA, USA) to remove surface-bound proteins, and internalized proteins were measured by flow cytometry (FlowJo cytometric analysis software, Guava, Millipore, Darmstadt, Germany). Untreated cells (gray) and equimolar concentration of unconjugated FITC (FITC only, green)-treated cells were served as control (FIG. 20). Each of NIH3T3 cells was incubated for 1 hour at 37° C. with 10 μM FITC-labeled SOCS3 protein. For nuclear staining, a mixture of […] Mounting Medium (Vector laboratories, Burlingame, Calif.) and DAPI (4′,6-diamidino-2-phenylindole) was added to NIH3T3 cells, and visualized using a confocal laser microscope (LSM700, Zeiss, Germany) (FIG. 21).

In another data set the test system is PANC-1-Luc cells. Description: Tumor targeting in orthotopic pancreatic cancer xenograft model (Alexa680 imaging). It is filed as in vivo, Balb/c nu/nu mice. The conditions noted are these: IV 40 mg/kg Alexa680-labeled protein; listed as iCP-SOCS3, 40 mg/kg. The procedure:
Tumor-targeting of the anticancer agent iCP-SOCS3 (HM165S3B) recombinant proteins was investigated in an orthotopic xenograft model. The protocol was adapted from World J Gastroenterol. 2014 Jul. 28; 20(28): 9476-9485. […] After 7 weeks, the mice were IP injected with 100 μl of luciferin (Sigma-Aldrich, St. Louis, Mo., USA) and imaged by Xenogen IVIS-200 imaging system 15 minute later. As shown in FIG. 88 (A), pancreatic cancer model was well established.
The iCP-SOCS3 recombinant proteins were labeled and IV injected to the mice with 40 mg/kg according to a manual of Alexa680 kit (Thermo Fisher Scientific, San Jose, Calif., USA).

For data set [1], the system named is HepG2 cells. Description: Induction of apoptosis, Annexin V/7-AAD staining. It is filed as cell-based, human. The conditions noted are these: for induction of apoptosis (Annexin V), HepG2, dose dependence: example 20-1. The procedure:
AGS cells (gastric carcinoma cell line) (American Type Culture Collection; ATCC) were seeded in a 12-well plate at a density of 1×10^5 cells/well, and then treated with 10 uM of aMTD/SD-fused SOCS3 for 14 hours. Cancer cell death was analyzed by Annexin V analysis. Annexin V/7-Aminoactinomycin D (7-AAD) staining was performed using flow cytometry according to the manufacturer's guidelines (BD Pharmingen, San Diego, Calif., USA). Briefly, cells were washed three times with ice-cold PBS. The cells were then resuspended in 100 μl of binding buffer and incubated with 1 μl of 7-AAD and 1 μl of annexin V-PE for 30 min in the dark at 37° C. Flow cytometric analysis was immediately performed using a guava easyCyte™ 8 Instrument (Merck Millipore, Darmstadt, Germany).
Annexin V/7-Aminoactinomycin D (7-AAD) staining was performed using flow cytometry according to the manufacturer's guidelines (BD Pharmingen, San Diego, Calif., USA). Briefly, 1×10^6 cells were washed three times with ice-cold PBS. The cells were then resuspended in 100 μl of binding buffer and incubated with 1 μl of 7-AAD and 1 μl of […] for 30 min in the dark at 4° C. Flow cytometric analysis was immediately performed using a guava easyCyte™ 8 Instrument (Merck Millipore, Darmstadt, Germany). In this regard, Cisplatin® (IC50: 30 μM) was used as a reference drug.
The effect of inducing apoptosis of Chang liver cells was measured in the same manner as in Example 11-2, except that as target cell lines, normal Chang liver cells and hepatocellular carcinoma cell lines, Hep3B, HepG2, Huh7, and SK-HEP-1 were used, and as a reference drug, 5-FU® (IC50: 40 μM) was used.

A further data set has as its system AGS cells. Description: Wound cell migration inhibition in gastric carcinoma cells. The conditions noted are these: 10 μM 2 hrs, additional 24 hrs. It is filed as cell-based. Here is the method: AGS cells (gastric cancer cell line) were seeded in a 12 well plate at a density of 2.5×10^5 per well, grown to 90% confluence. Confluent AGS cells were incubated with 10 μM HM#S3B in serum-free medium for 2 hrs prior to changing the growth medium (DMEM/F12, Hyclone, Logan, Utah, USA) and washed twice with PBS, and the monolayer at the center of the well was “wounded” by scraping with a sterilized white pipette tip. Cells were cultured for an additional 24 hrs and cell migration was observed by phase contrast microscopy (Nikon, ECLIPSE Ts2). The migration was quantified by counting the number of cells that migrated from the wound edge into the clear area.

The nature of data set [2]: Tissue-permeability / systemic delivery of FITC-labeled SOCS3 proteins after intraperitoneal injection. It is filed as in vivo, ICR mice. Here is the method:
To further investigate in vivo delivery of SOCS3 recombinant proteins, ICR mice (Doo-Yeol Biotech Co. Ltd., Seoul, Korea) were intraperitoneal (IP) injected with 600 μg/head of 10 μM FITC (Fluorescein isothiocyanate, SIGMA, USA)-labeled SOCS3 proteins and sacrificed after 2 hrs. From the mice, the liver, kidney, spleen, lung, heart, and brain were removed and washed with PBS, and then placed on a dry ice, and embedded with an O.C.T. compound (Sakura). After cryosectioning at 20 μm, tissue distributions of fluorescence-labeled-SOCS3 proteins in different organs was analyzed by fluorescence microscopy (Carl Zeiss, Gottingen, Germany)(FIG. 22).
The liver tissue permeability was analyzed by the method described in Example 7-2.

Data set [3] has as its system HepG2 cells. Description: Cell-permeability of FITC-labeled SOCS3 recombinant proteins in hepatocellular carcinoma cells (flow cytometry). It is filed as cell-based, human. Conditions: 10 μM FITC-labeled protein, 1 hr, 37° C. The procedure:
HepG2 cells (ATCC, Manassas, Va., USA) were seeded in a 12 well plate, grown to 90% confluence. Cells were treated with 10 μM FITC-labeled iCP-SOCS3 recombinant proteins and cultivated for 1 hr at 37° C.
After cultivation, the cells were treated with proteinase K (10 ug/mL, SIGMA, USA) and washed three times with ice-cold PBS (Phosphate-buffered saline, Hyclone, USA) to remove surface-bound proteins, and internalized proteins were measured by flow cytometry (FlowJo cytometric analysis software, Guava, Millipore, Darmstadt, Germany). Untreated cells (gray) and equimolar concentration of unconjugated FITC (FITC only, green)-treated cells were served as control (FIG. 57).

B1: HM165S3B: His-tagged recombinant protein of aMTD165, human SOCS3 and solubilization domain B; prototype improved cell-permeable SOCS3 (protein)
chain: MGSSHHHHHHSSGLVPRGSHMALAVPVALAIVPVTHSKFPAAGMETSRPLDTSLRLKTFSSKSEYQLVVNAVRKLQESGFYWSAVTGGEANLLLSAEPAGTFLIRDSSDQRHFFTLSVKTQSGTKNLRIQCEGGSFSLQSDPRSTQPVPRFDCVLKLVHHYMETPPPGAPSFPSPPTEPSSEVPEQPSAQPLPGSPPRRAYYIYSGGEKIPLVLSRPLSSNVATLQHLCRKTVNGHLDSYEKVTQLPGPIREFLDQYDAPLGSMAEQSDKDVKYYTLEEIQKHKDSKSTWVILHHKVYDLTKFLEEHPGGEEVLGEQAGGDATENFEDVGHSTDARELSKTYIIGELHPDDRSKIAKPSETL
modifications: Amino acid sequence of HM165S3B
Regarding B1, the dose-dependency of cell-permeability result with RAW 264.7 cells (0.05 μM~10 μM, 1 hrs) is given as “dose-dependent”. Further, the “cell-permeability (protein uptake)” value in the data set with RAW 264.7 cells (10 μM FITC-labeled protein, 1 hr, 37° C.) was “efficiently entered the cells; also recorded: very efficient; also recorded: showed the highest cell-permeability; also recorded: high cell permeability”. Besides, the time-dependency of cell-permeability entry in the data set with RAW 264.7 cells (10 μM, 5~180 minutes) was “high level of cell-permeability of iCP-SOCS3 was observed only 5 minutes post-treatment and could be seen even at 180 minutes mark”. Besides, the “biodistribution / tumor accumulation” value in the data set with PANC-1-Luc cells is on record as “delivered to every part of the body at 5 minutes; also recorded: a large amount of the proteins were accumulated only in tumor”. Moreover, the “induction of apoptosis (Annexin V), HepG2, dose dependence” value was “dose-dependently efficient inducer of apoptosis” in the data set on HepG2 cells [1] and “upon treatment of 10 uM or more of iCP-SOCS3, there was no difference in induction of apoptosis” with HepG2 cells [1] (listed as iCP-SOCS3). The “induction of apoptosis (Annexin V), HepG2” value in the data set with HepG2 cells [1] (example 20-2) is “considerably efficient inducer of apoptosis”. The results for the “inhibition of cell migration (wound)” value in the data set with AGS cells and in the data set with AGS cells (listed as aMTD165-fused SOCS3 recombinant protein) were “inhibiting migration of gastric carcinoma cells” and “showed the most effective inhibition of cancer cell migration”, respectively. Further, the “tissue distribution / systemic delivery” value in data set [2] (IP 600 μg/head FITC-labeled protein, sacrificed after 2 hrs, liver, kidney, spleen, lung, heart, brain) is listed as “distributed to a variety of tissues (liver, kidney, spleen, lung, heart and, to a lesser extent, brain); also recorded: showed the highest systemic delivery of SOCS3 protein to the tissues; also recorded: exhibited superior cell-permeability”. In data set [2] (intraperitoneal injection), the “systemic delivery to liver” value was “enhanced the systemic delivery to liver”. The “transduction into HepG2 cells” value in the data set on HepG2 cells [3] is “promoted the transduction into cultured HCC HepG2 cells”.
